From patent publication US20220204611A1 (Amgen, published 2022)
Numbering of substitutions follows the chain as printed.

T1: recombinant soluble human TREM2 protein (human TREM2 ECD-FlagHis) (human, UniProt Q9NZC2 19-174)
T1 sequence: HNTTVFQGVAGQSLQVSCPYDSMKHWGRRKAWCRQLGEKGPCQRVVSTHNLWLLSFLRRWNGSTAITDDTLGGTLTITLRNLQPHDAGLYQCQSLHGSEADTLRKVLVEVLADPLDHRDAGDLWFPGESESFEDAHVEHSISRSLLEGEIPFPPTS

T2: human TREM2 on cells (human, UniProt Q9NZC2 19-230)
T2 sequence: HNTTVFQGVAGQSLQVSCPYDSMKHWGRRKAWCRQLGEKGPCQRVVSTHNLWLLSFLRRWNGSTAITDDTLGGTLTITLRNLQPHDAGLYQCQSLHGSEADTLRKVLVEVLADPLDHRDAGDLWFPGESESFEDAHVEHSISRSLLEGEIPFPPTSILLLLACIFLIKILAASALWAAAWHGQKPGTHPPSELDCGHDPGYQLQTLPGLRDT

B1: 5E3 (antibody, human IgG2, V domains shown)
VH: QVQLVQSGAEVKKPGASVKVSCKASGYTFTGYYIHWVRQAPGLGLEWMGWINPYSGGTTSAQKFQGRVTMTRDTSISSAYMELSRLRSDDTAVYYCARDGGYLALYGTDVWGQGTTVTVSS
VL: DIQMTQSPSSLSASVGDRVTITCRASQGISNYLAWFQQKPGKAPKSLIYAASSLQSGVPSKFSGSGSGTDFTLTISSLQPEDFATYYCQQYSTYPFTFGPGTKVDIK
notes: human IgG2 from hybridoma
B2: 6E7 (antibody, human IgG2, V domains shown)
VH: EVQLVQSGAEVKKPGESLKISCKGSGYSFTSYWIAWVRQMPGKGLEWMGIIYPGDSDTRYSPSFQGQVTISADKSISTAYLQWSSLKASDTAMYFCARQRTFYYDSSDYFDYWGQGTLVTVSS
VL: DIQMTQSPSSVSASVGDRVTITCRASQGISSWLAWYQQKPGKAPKLLIYAASSLQNGVPSRFSGSGSGTDFTLTISSLQPEDFATYFCQQADSFPRTFGQGTKLEIK
notes: human IgG2 from hybridoma
B3: 10E3 (antibody, human IgG2, V domains shown)
VH: EVQLVQSGAEVKKPGESLMISCKGSGYSFTNYWIGWVRQMPGKGLEWMGIIYPGDSDTRYSPSFQGQVTISADKSISTAYLQWSSLKASDTAMYFCARRRQGIWGDALDIWGQGTLVTVSS
VL: EIVMTQSPATLSVSPGERATLSCRASQSVSSNLAWFQQKPGQAPRLLIYGASTRATGIPARFSVSGSGTEFTLTISSLQSEDFAFYYCLQDNNWPPTFGPGTKVDIK
notes: human IgG2 from hybridoma
B4: 13E7 (antibody, human IgG2, V domains shown)
VH: B3 VH with N31S, I110F
VL: B3 VL with F85V
notes: human IgG2 from hybridoma

target: T1, recombinant soluble human TREM2 protein …; experiment: Octet BLI binning; competitor: load Ab 24F4
Summary of the method: (§1)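 Sixteen hybridoma-derived anti-TREM2 antibodies were cross-tested pairwise as load and sandwich antibodies on anti-human Fc biosensors at 25° C. Assay buffer held 10 mM Tris pH 7.6, 150 mM NaCl, 1 mM CaCl₂, 0.1% Triton X-100 and 1 mg/mL BSA.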

sandwich binding signal	Binder
0.434	B1
0.054	B2
-0.002	B3
-0.002	B4

target: T1, recombinant soluble human TREM2 protein …; experiment: Octet BLI binning; competitor: load Ab 26F2
Summary of the method: as §1

sandwich binding signal	Binder
-0.045	B1
0.506	B2
0.354	B3
0.363	B4

target: T2, human TREM2 on cells; experiment: cell-based or functional assay

pSyk EC50 [nM]	Binder
0.24	B1
0.29	B2
0.4	B3
0.4	B4

target: T1, recombinant soluble human TREM2 protein …; experiment: Octet BLI binning; competitor: load Ab 25F12
Summary of the method: as §1

sandwich binding signal	Binder
0.38	B1
0.371	B2
0.273	B3
0.278	B4

target: T1, recombinant soluble human TREM2 protein …; experiment: Octet BLI binning; competitor: load Ab 32E3
Summary of the method: as §1

sandwich binding signal	Binder
0.338	B1
0.079	B2
0.007	B3
0.01	B4

target: T1, recombinant soluble human TREM2 protein …; experiment: Octet BLI binning; competitor: load Ab 33B12
Summary of the method: as §1

sandwich binding signal	Binder
-0.055	B1
0.434	B2
0.303	B3
0.303	B4

target: T1, recombinant soluble human TREM2 protein …; experiment: Octet BLI binning; competitor: load Ab 24G6
Summary of the method: as §1

sandwich binding signal	Binder
0.328	B1
0.412	B2
0.317	B3
0.338	B4

target: T1, recombinant soluble human TREM2 protein …; experiment: Octet BLI binning; competitor: load Ab 26A10
Summary of the method: as §1

sandwich binding signal	Binder
-0.052	B1
0.475	B2
0.367	B3
0.371	B4

target: T1, recombinant soluble human TREM2 protein …; experiment: Octet BLI binning; competitor: load Ab 6E7
Summary of the method: as §1

sandwich binding signal	Binder
0.514	B1
0.009	B2
-0.012	B3
-0.01	B4

target: T1, recombinant soluble human TREM2 protein …; experiment: Octet BLI binning; competitor: load Ab 4G10
Experimental: (§2) Each of sixteen different anti-TREM2 antibodies produced from hybridomas were quantitated and loaded onto one of the anti-human Fc sensors at 5 μg/mL for 2 minutes (“Load Antibody”). The sensor was then blocked with 100 μg/mL of an irrelevant human IgG2 antibody for 5 minutes. […] Next, each of the sixteen different anti-TREM2 antibodies (“Sandwich Antibody”) was added to the sensor at 5 μg/mL and allowed to bind for 5 minutes. All assay buffers contained 10 mM Tris (pH 7.6), 0.1% Triton X-100, 150 mM NaCl, 1 mM CaCl₂, and 1 mg/mL BSA. The assay was conducted at 25° C. Experimental kinetic results were fit to a 1:1 binding model.
(§3) However, if addition of the sandwich antibody produces a binding event, then the sandwich antibody binds to a different epitope on human TREM2 than the load antibody and the two antibodies are categorized into different epitope bins.

sandwich binding signal	Binder
-0.008	B3

target: T1, recombinant soluble human TREM2 protein …; experiment: Octet BLI binning; competitor: load Ab 4C5
Experimental: as §2, §3

sandwich binding signal	Binder
0	B3

target: T1, recombinant soluble human TREM2 protein …; experiment: Octet BLI binning; competitor: load Ab 10E3
Summary of the method: as §1

sandwich binding signal	Binder
0.222	B1
0.051	B2
-0.024	B3
-0.019	B4
